Source: paper PMC5187433, “A bromodomain–DNA interaction facilitates acetylation-dependent bivalent nucleosome recognition by the BET protein BRDT” (Nature Communications, 2016)

Legend:
Test in all cases: ITC
N-BRDT(1) (Homo sapiens) = N-BRDT(1) (Homo sapiens) (UniProt Q58F21); conditions: EMSA: 20 mM Tris pH 7.5, 100 mM NaCl, 5 mM DTT, 0.5 mM EDTA, 4 C, ITC: 20 mM Tris pH 8.0, 150 mM NaCl, 1 mM EDTA, 1 mM TCEP, 20 C, NMR at 34 C
[1] = biological target: N-BRDT(1) 3KE K37E;K41E;K45E (Homo sapiens) (UniProt Q58F21); conditions: histone H4K5acK8ac (H4 A15C ligation); EMSA: 20 mM Tris pH 7.5, 100 mM NaCl, 5 mM DTT, 0.5 mM EDTA, 4 C; ITC: 20 mM Tris pH 8.0, 150 mM NaCl, 1 mM EDTA, 1 mM TCEP, 20 C; NMR at 34 C
[2] = biological target: N-BRDT(1) 3KS K37S;K41S;K45S (Homo sapiens) (UniProt Q58F21); conditions: histone H4K5acK8ac (H4 A15C ligation); EMSA: 20 mM Tris pH 7.5, 100 mM NaCl, 5 mM DTT, 0.5 mM EDTA, 4 C; ITC: 20 mM Tris pH 8.0, 150 mM NaCl, 1 mM EDTA, 1 mM TCEP, 20 C; NMR at 34 C
[3] = biological target: N-BRDT(1) K41S K41S (Homo sapiens) (UniProt Q58F21); conditions: histone H4K5acK8ac (H4 A15C ligation); EMSA: 20 mM Tris pH 7.5, 100 mM NaCl, 5 mM DTT, 0.5 mM EDTA, 4 C; ITC: 20 mM Tris pH 8.0, 150 mM NaCl, 1 mM EDTA, 1 mM TCEP, 20 C; NMR at 34 C

Sequence	Kd (N-BRDT(1) (Homo sapiens); histone H4K5acK8ac (H4 A15C ligation))	binding signal (fold reduced affinity vs WT) [1]	Kd [2]	Kd [3]	Kd (N-BRDT(1) (Homo sapiens); H4K5acK8ac tail ligated to H3 core, WT H2A, H2B, H4)
TCGGGGGCCGCCCTGGAGAATCCCGGTGCCGAGGCCGCTCAATTGGTCGTAGACAGCTCTAGCACCGCTTAAACGCACGTACGCGCTGTCCCCCGCGTTTTAACCGCCAAGGGGATTACTCCCTAGTCTCCAGGCACGTGTCAGATATATACATCCTGTGCATGTAC / CCGAGTACATGCACAGGATGTATATATCTGACACGTGCCTGGAGACTAGGGAGTAATCCCCTTGGCGGTTAAAACGCGGGGGACAGCGCGTACGTGCGTTTAAGCGGTGCTAGAGCTGTCTACGACCAATTGAGCGGCCTCGGCACCGGGATTCTCCAGGGCGGCCC [H4K5acK8ac nucleosome (167 bp Widom)]	2 µM	5	9 µM	7 µM	
TCGGGGGCCGCCCTGGAGAATCCCGGTGCCGAGGCCGCTCAATTGGTCGTAGACAGCTCTAGCACCGCTTAAACGCACGTACGCGCTGTCCCCCGCGTTTTAACCGCCAAGGGGATTACTCCCTAGTCTCCAGGCACGTGTCAGATATATACATCCTGTGCATGTAC / CCGAGTACATGCACAGGATGTATATATCTGACACGTGCCTGGAGACTAGGGAGTAATCCCCTTGGCGGTTAAAACGCGGGGGACAGCGCGTACGTGCGTTTAAGCGGTGCTAGAGCTGTCTACGACCAATTGAGCGGCCTCGGCACCGGGATTCTCCAGGGCGGCCC [chimeric H3-H4K5acK8ac nucleosome (167 bp Widom)]					5 µM
